Results published in publication PMC6282072.

Legend:
[1] = target: porcine cardiac ventricular myosin (βmys) (porcine) (UniProt P79293)
[2] = target: porcine cardiac ventricular myosin (βmys) (porcine) (UniProt P79293); remark: listed apart in the source

actin-activated myosin ATPase, Km (value of the running text) [1]: 3.6 µM
actin-activated myosin ATPase, Km (0.6 µM myosin titrated with 1–50 µM F-actin, 25 mM KCl, 21°C) [2]: 3.7 µM
Substance: bovine ventricular actin (cardiac actin) (from UniProt Q3ZC07 1-377) (natural protein)
